{"source": "patent US20230227514A1", "about": "“BETA-ARRESTIN COMPOSITIONS AND ASSOCIATED METHODS” (Duke University, priority 2020, published 2023)", "key": {"[1]": {"target": "T1, D2 dopamine receptor (D2R) (Homo sapiens, UniProt P14416)", "T1 construct": "expressed in transfected cells", "T1 sequence (P14416 whole entry)": "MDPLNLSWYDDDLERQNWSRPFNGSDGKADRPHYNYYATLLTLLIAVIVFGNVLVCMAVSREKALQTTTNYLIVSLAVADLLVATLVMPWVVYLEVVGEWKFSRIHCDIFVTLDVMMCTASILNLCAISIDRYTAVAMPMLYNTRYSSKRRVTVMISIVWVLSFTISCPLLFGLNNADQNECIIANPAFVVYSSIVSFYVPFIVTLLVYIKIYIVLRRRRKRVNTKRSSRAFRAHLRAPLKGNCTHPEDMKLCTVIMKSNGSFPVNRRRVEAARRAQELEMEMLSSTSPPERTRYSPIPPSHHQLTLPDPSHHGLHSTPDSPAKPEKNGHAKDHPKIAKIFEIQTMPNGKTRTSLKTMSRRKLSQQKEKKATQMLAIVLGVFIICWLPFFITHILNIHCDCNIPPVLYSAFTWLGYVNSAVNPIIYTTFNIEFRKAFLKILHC", "assay": "BRET dose-response assay of βarrestin2 construct recruitment to D2R-RlucII", "assay_type": "cell-based", "conditions": "D2R-RlucII with YFP constructs; dopamine 15 min; compared with YFP-βarrestin2", "description": "HEK-293 cells were transiently transfected with D2R-RlucII along with YFP-βarr2-WT, YFP-βarr2-SUMO1 or YFP-βarr2-Ub and incubated with the indicated concentrations of dopamine for 15 min. BRET signals were measured as described in Example 1 herein, and changes following agonist treatment are expressed as a percentage of the BRET signal observed in unstimulated cells (top panel). […] The histogram (bottom panel) represents Bmax values of agonist induced BRET as means±SEM of 4 independent experiments performed in duplicates. Significance of changes in energy transfer was established by one-way ANOVA comparing signals measured for the recruitment of βarr2 fusion proteins to D2R-RlucII *p<0.01; **p<0.001.\nBRET assays. […] BRET readings were acquired using Synergy Neo2 plate reader and obtained 5 min after manual addition of Rluc substrate, coelenterazine h (Promega) to a final concentration of 5 μM.\n(§1) The BRET signal generated was determined by calculating the ratio of light emitted by YFP (520-550 nm) over the light emitted by Rluc (440-480 nm). These values were then corrected by subtracting the background signal (detected when the Rluc-tagged construct was expressed without acceptor) from the BRET signal detected in cells co-expressing both donor and acceptor constructs. […]"}, "V2R [2]": {"target": "T2, V2R (Homo sapiens, UniProt P30518)", "T2 construct": "HA (N); expressed in transfected cells", "assay": "BRET assay of βarrestin2 construct recruitment to V2R", "assay_type": "cell-based", "conditions": "vasopressin stimulation, 15 min", "description": "Changes following agonist treatment are expressed as a percentage of the BRET signal observed in unstimulated cells (top panel). The histogram (bottom panel) represents Bmax values of agonist-induced BRET as means±SEM of 3 independent experiments performed in duplicates. Lack of significance (“ns”) of changes in energy transfer was evaluated using unpaired t-test.\nBRET assays. […] Titration assays were first completed, which allowed determination of the specificity of association among different interaction partners. See Nagi and Shenoy. 2019, supra; Gales et al. 2005. Nature methods 2:177-184; Nagi et al. 2015. Cellular and molecular life sciences: CMLS 72:3543-3557; Audet and Pineyro. 2011. Methods in molecular biology 756:149-163; and Rebois et al. 2006. Journal of cell science 119:2807-2818. […] BRET readings were acquired using Synergy Neo2 plate reader and obtained 5 min after manual addition of Rluc substrate, coelenterazine h (Promega) to a final concentration of 5 μM.\nas §1"}, "β2AR": {"target": "T3, β2AR (Homo sapiens, UniProt P07550)", "T3 construct": "Flag (N); expressed in transfected cells", "assay": "Chemical cross-linking and co-immunoprecipitation of βarrestin2 constructs with Flag-β2AR", "assay_type": "binding", "conditions": "HEK-293 cells stably expressing FLAG-β2AR; 5 minutes of 1 μM isoproterenol; DSP cross-linking, co-IP, Western blot", "description": "Cross-linking, Immunoprecipitation and Immunoblotting. […] Twenty-four hours post-transfection, cells were starved in PBS containing 10 mM HEPES (pH 7.4) for 1 h and stimulated with vehicle or agonist (isoproterenol, 1 μM; or AVP 1 μM, or Dopamine 1 μM) at 37° C. for desired times. After stimulations, β2AR stable cells were treated with the crosslinker DSP to a final concentration of […], and plates were rocked for 20 min at room temperature. Reaction was quenched by adding 25 μl of 1M Tris-Cl pH 8.5 per 1 mL volume of buffer in the dish and rocked for additional 5 min at room temperature.\nHarvested cells were washed with ice-cold PBS (pH 7.4) and solubilized in an ice-cold lysis buffer (50 mM HEPES (pH 7.5), 2 mM EDTA, 250 mM NaCl, 10% (v/v) glycerol, and 0.5% (v/v) IGEPAL CA-630) that was supplemented with phosphatase and protease inhibitors (1 mM sodium orthovanadate, 1 mM sodium fluoride, 1 mM phenylmethylsulfonyl fluoride, 5 μg/ml leupeptin, 5 μg/ml aprotinin, 1 μg/ml pepstatin A, and 100 μM benzamidine). […] Cell lysate protein concentrations were determined by Bradford protein assay and equivalent μg of proteins were immunoprecipitated using anti-FLAG M2 antibody resin (for FIG. 2) or Anti-HA magnetic beads from Thermo Pierce (for FIG. 5, FIG. 7, and FIG. 8). […] HA-D2R or HA-V2R were detected using an anti-HA IgG (Cell Signaling Technologies). […]"}, "V2R [3]": {"target": "T2, V2R", "assay": "Co-immunoprecipitation of βarrestin2 constructs with HA-V2R", "assay_type": "binding", "conditions": "HEK-293 cells stably expressing HA-V2R; AVP", "experimental": "Twenty-four hours post-transfection, cells were starved in PBS containing 10 mM HEPES (pH 7.4) for 1 h and stimulated with vehicle or agonist (isoproterenol, 1 μM; or AVP 1 μM, or Dopamine 1 μM) at 37° C. for desired times. After stimulations, β2AR stable cells were treated with the crosslinker DSP to a final concentration of 480 nM, and plates were rocked for 20 min at room temperature. Reaction was quenched by adding 25 μl of 1M Tris-Cl pH 8.5 per 1 mL volume of buffer in the dish and rocked for additional 5 min at room temperature."}}, "data": [{"substance": "βarrestin2-SUMO1: rat βarrestin2 polypeptide fused to human SUMO1 (SEQ ID NO:1); used YFP- or Flag-tagged", "values": [{"measurement": "agonist-mediated increase in energy transfer (net BRET) with D2R", "setting": "[1]", "value": "greater"}, {"measurement": "magnitude of interaction with activated V2R defined by BRET, versus βarrestin2", "setting": "V2R [2]", "value": "No significant differences"}, {"measurement": "binding to activated β2AR relative to WT βarrestin2", "setting": "β2AR", "value": "2-3 fold"}, {"measurement": "binding with agonist activated V2Rs by co-immunoprecipitation", "setting": "V2R [3]", "value": "equivalent binding"}]}]}
